Measurements published in patent US12365732 (23ANDME, dated 2025).
Positions count from the first letter of the chain named. Names may count otherwise.

Key:
[1] = target: T1, cynomolgus monkey CD96 on cynomolgus monkey PBMCs (cynomolgus monkey, UniProt A0A2K5TWV6 22-569); assay: FACS, Ab 0.64 nM
T1 construct: whole, on cells
T1 sequence: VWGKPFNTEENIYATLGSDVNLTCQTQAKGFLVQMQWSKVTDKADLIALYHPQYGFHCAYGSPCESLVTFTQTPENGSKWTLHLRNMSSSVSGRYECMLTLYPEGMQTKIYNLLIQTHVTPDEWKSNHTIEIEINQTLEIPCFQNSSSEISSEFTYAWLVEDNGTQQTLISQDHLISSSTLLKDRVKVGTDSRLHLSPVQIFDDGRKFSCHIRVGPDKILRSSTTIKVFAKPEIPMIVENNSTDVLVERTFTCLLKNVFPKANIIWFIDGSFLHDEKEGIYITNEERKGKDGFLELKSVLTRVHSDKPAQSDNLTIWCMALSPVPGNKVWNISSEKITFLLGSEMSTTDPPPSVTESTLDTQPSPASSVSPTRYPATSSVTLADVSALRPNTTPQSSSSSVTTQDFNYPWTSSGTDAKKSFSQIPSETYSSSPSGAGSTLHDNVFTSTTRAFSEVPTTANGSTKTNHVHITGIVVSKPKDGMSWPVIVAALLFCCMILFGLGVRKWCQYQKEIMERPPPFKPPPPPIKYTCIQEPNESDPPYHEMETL
Experimental: The ability of the anti-CD96 antibodies to bind primary immune cells from human and cynomolgus monkey with lower level of receptor expression was measured. Human PBMCs (StemCell Technologies, catalog #70025) and cynomolgus monkey PBMCs (Primate Biologicals, catalog #CM-MC) were incubated with human TruStain FcX (Biolegend, catalog #422302) for 10 minutes at 4° C., followed by incubation with an anti-CD96 antibody for 20 minutes at 4° C. Cells were washed and the anti-CD96 antibody binding was detected by incubation with anti-mouse IgG-PE (Thermo Fisher, catalog #M30204) or anti-human IgG (Fab) 2-PE (Thermo Fisher, catalog #H10104) for 20 minutes at 4° C. Cells were washed, and immune subtypes were labeled with anti-CD3 (BD, catalog #557705), anti-CD4 (Biolegend, catalog #317424) and anti-CD8 (BD, catalog #557760) for 20 minutes at 4° C. Cell binding was analyzed by flow cytometry with a CytoFLEX (Beckman Coulter). Binding curves were calculated as a percentage of cells positive for bound antibody in the cell type of interest.

[2] = target: T2, hu-CD96 isoform 2 on CHO cells (human, UniProt P40200 22-585); assay: FACS, CD155-Fc-FLAG 10 nM, Ab 4 nM
T2 construct: also called CHO-CD96 (isoform 2); CD96-CHOs
T2 sequence: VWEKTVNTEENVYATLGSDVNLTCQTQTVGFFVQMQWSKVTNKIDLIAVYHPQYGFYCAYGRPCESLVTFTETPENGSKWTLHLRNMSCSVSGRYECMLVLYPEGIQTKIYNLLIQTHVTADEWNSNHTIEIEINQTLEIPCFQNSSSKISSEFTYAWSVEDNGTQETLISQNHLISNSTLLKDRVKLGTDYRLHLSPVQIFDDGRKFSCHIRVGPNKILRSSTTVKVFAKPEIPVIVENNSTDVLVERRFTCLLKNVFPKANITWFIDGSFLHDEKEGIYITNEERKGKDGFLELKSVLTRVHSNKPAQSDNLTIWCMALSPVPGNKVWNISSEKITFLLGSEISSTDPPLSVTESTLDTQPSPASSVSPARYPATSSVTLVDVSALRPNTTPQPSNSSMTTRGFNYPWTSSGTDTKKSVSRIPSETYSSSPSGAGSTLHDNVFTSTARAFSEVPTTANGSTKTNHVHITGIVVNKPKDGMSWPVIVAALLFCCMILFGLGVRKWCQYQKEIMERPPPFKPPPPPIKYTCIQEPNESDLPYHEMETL
Experimental: CHO cells stably expressing isoform 2 of hu-CD96 (Origene, catalog #RC221005) were incubated with anti-CD96 antibodies for 20 minutes at 4° C. The cells were washed, and then incubated with 10 nM human CD155-Fc-FLAG for 30 minutes at 4° C. Cells were washed, and then human CD155-Fc-FLAG binding was detected by incubation with anti-FLAG-APC (Columbia Biosciences, catalog #D3-1718-1MG) for 20 minutes at 4° C. Cell binding was analyzed by flow cytometry with a CytoFLEX (Beckman Coulter). CD155 binding is represented as median fluorescence intensity (MedFI).
As shown in Table 20 (below), the anti-CD96 antibodies, mAb1.v7.NGS8, mAb1.v7.NGS9, mAb1.v7.NGS10, mAb1.v7.NGS11, and h10G1 inhibited soluble hu-CD155 binding to CD96-expressing CHO cells dose-dependently and potently. The antibody NK92.39 (Fuchs et al., 2004; Biolegend catalog #338405) inhibited receptor binding similarly.

B1: mAb1.v7.NGS9 IgG (antibody, V domains shown)
VH: EVQLVQSGAEVKKPGASVKVSCKASGFTFTNNFMHWVRQAPGQGLEWIGMIHANSGITNINEKFKNRVTMTTDTSTSTAYMELRSLRSEDTAVYYCRSDGVYEGYFDYWGQGTLVTVSS
VL: DIQLTQSPSSLSASVGDRVTITCKASQNVGTAIVWYQQKPGKAPKVLIYSASTRYTGVPSRFSGSGSGTDFTLTISSLQPEDFATYYCQQYSSSPLTFGQGTKVEIKG
notes: human IgG1 N297G
% positive [1]: 71%
CD155-Fc binding (MedFI) [2]: 6100 MedFI

B2: mAb1.v7.NGS10 IgG (antibody, V domains shown)
VH: B1 VH with M50F, V101I
VL: B1 VL
notes: human IgG1 N297G
% positive [1]: 73.1%
CD155-Fc binding (MedFI) [2]: 4940 MedFI

B3: mAb1.v7.NGS11 IgG (antibody, V domains shown)
VH: B1 VH with M50F
VL: B1 VL
notes: human IgG1 N297G
% positive [1]: 74.3%
CD155-Fc binding (MedFI) [2]: 4860 MedFI

B4: h10G1 IgG (humanized 10G1) (antibody, V domains shown)
VH: EIQLVQSGSELKKPGASVKVSCKASGYPFTTYGMSWVRQAPGQGLEWMGWINTDSGVPTYADDFKGRFVFSLDTSVSTAYLQISSLKAEDTAVYFCARNIYYGWGNFDYWGQGTLVTVSS
VL: EIVMTQSPDFQSVTPKEKVTITCRASQDIYRNLHWYQQKPDQTPKLLIKHASDSISGIPSRFSGSGSGTDFTLTINSLEAEDAAAYYCLQGYSMPYTFGGGTKVEIKG
notes: human IgG1 N297G
% positive [1]: 51.2%
CD155-Fc binding (MedFI) [2]: 4860 MedFI
